test: yeast display, Sf9 membrane polyspecificity reagent, FACS + sequencing; frameworks hold sequencing errors
Method in brief: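 Polyreactivity labels are assigned by the sorting gate from which each nanobody was recovered. The gates were low and high (top ~1%), set on anti-HA fluorescence for expression and streptavidin fluorescence for reagent binding. Before sorting, galactose-induced (36–48 hours) yeast display cells were stained for 1 hour at 4 °C with 10% biotinylated, detergent-solubilized Sf9 membrane reagent.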

Sequence | polyreactivity (PSR sort gate)
QVQLQESGGGLVQAVGSLRLSCAASGYISSWYPMGWYRQAPGKEREFVATIAPGATTYYADSVKGRFTISRDYAKKTVYLQMNSLKPEDTAVYYCAAGPEKNDFYSYWGQGTQVTVSS | low polyreactivity
QVQLQESGGGLVQEGGSLRLSCASSGNISPPADMGWYRQAPGKERELVASMGTGGTTNYADSVKGRFTISRDNAKNTVYLQMNSLKPDDTAVYYCAAVRYEYNPYDYWGQGTQVTVSS | low polyreactivity
QVQLQESGGGLVQGGGSLRLSCAASGSIYRSWYMGWYRQAPGKERELVASITEGATTNYAYSVKAALPLAAITRNTVYLQMDSMKPEDTAVYYRAASFGSTYDLVYWGQGTQVTVSS | high polyreactivity
QVQLQESGGGLVQPGGSLRLSCAATGTISDSGLMGWYRQAPGKERELVSGISSGGITQYADSVNGRFTISRDNAKNTVYLQMNSLKPEDTAVYWGQGTQVTVSS | low polyreactivity
QVQLQESGGGLVQVGGSLRLSCAASGTIFIYGFLGWNRQAPGKERDLVASINLGGITNYADSVKGRFTISRDNAKITVYLQMNSLKPEDTAVYYCAADGGESAWGGYDYWGQGTQGTVSS | low polyreactivity
QVQLQESGGGMVQAGGSLRLSCAASGYISWADYMGWYRQAPGKERELVAGIGYGSTTYYADSVKGRFTISRDNAKNTAYLQMNSLKPEDTAVYYCNADVRYGRDHWGQGTQVTVSS | low polyreactivity
QVQLQESGGGMVQAGGSLRLTCAATGYISSCYPMRWYRQAPGKEREFVATIAPGATTYYADSVKGRFTISRDYAKNTVYLQMNSQKPEATAVYVCAAGPENIDFYSYWGQGTQVTVSS | low polyreactivity
QVQLQESGGGQVLAGGSLRVSCAASGYIPYSRWMGWNRQAPGKEREFVAGIGYGSSTYYADSVKGRFTISRDNAKNTVYLQMNSLKPEDTAVYYCNASIFFRRNVTQVRMDYWGQGSQVTVSS | high polyreactivity
QVQLQESGGGRMQAGGSQRLSCAASGSISYYSDMGWYRQAPGKEREFVAGIGYGTTTNYADSVKGRFTTSRDNAKNTVYLQMISMKPEDTAVYYCAAYQGNGYEFYYWGQGTQVTVRS | low polyreactivity
QVQLQESGGLEQAGVSLRLSCAACGNIFYDTYICWYRQGKERELVASIDHAGSTNYADSVIGRFTISRDNAKNTSYLQRNSLKPDDTAVYYCNAEYTKTGALLIPYTYYYAEDYWGQGTQVTVSS | low polyreactivity
QVQLQESGGLVQAGGLRLSCAASGSDSYQEDMAWYRQAPGKERELVATISFGANTNYADSVKGRFTISRDNAKNTVYLQMNSLKPEDTAVYYCAAESLFDDYYGYWGQGTQVTVSS | low polyreactivity
QVQLQESGGLVQAGGSLRLSCAASGSISGRNVMGWYRQAPGKEREFVASITDGSSTNYADSVKGRFTISRDNAKNTVFLQMNSLKPKDTAVYYCAAYAQGAKSFGYWGRGTQVTVSS | low polyreactivity
QVQLQESGGSLVQAGGSLRLSCAASGNILVLPHGLVSPGAERELVATITGGSITYYADSVKGRFTISRDNAKNTVYLQMNSLKPGDTAVYYCAVINIYHRPHPYWGQGTLVTVSS | high polyreactivity
QVQLQESGGSLVQAGGSLRLSCAASGSISYPRTMGWYRQAPGKEREFVAGIGVGGTTYYADSVKGRFTISRDNAKITVYLQMNSLKPEDTAVYYCARRRSGPSVLYYYWGQGTQVTVSS | low polyreactivity
QVQLQESGGSPVQAGGGLRLSCAASGYISVGSVMGWYRQAPSKERELVASIDQGANTNYADSVKGRFTISRDNAKNNVYLQMNSLKPEDTAVYYCATETTYILNYWGQGTQVTVSS | low polyreactivity
QVQLQESGGVLVQAGGDLRLSCAASGNIFRDYIMGWYRQAPGQERDFVAGIDRGANTNYADSVKGRFTISRDNAKNTVYLQMNSLKPEDTAVYYCAVHTAIVPDFIYWGQGTQVTVSS | low polyreactivity

Sequence | polyreactivity (PSR sort gate)
QVQLQESGGVLVQAGGSLRLSCAARGYISLAQTIGWYRQAPGKEREFVASIALGSSTYYTDSEKGSFTISRDNAKTTVYLQMNSLKPEDTAVYYCAARVGASYAHDYWGQGTEVTVSS | low polyreactivity
QVQLQESGGVLVQAGGSLRLSCAASGSIFVSVTMGWYRQAPGKERELVASIGRGSTTNHADSVKGRFTISRDNAKNIVYLLMNSLKPEDTAVYYCAALESYGKYHGYWGQGTQVTVSS | low polyreactivity
QVQLQESGGVLVQAGGSLRLSCAASGSIYDDTYMGWYRQAPGKERELVATIDSGSTTNYADSVKGRITICRDNAKNSVDLQMNTLKPEDTAVYYCAAADSHIDYFDYWGQGTQVTVSS | low polyreactivity
QVQLQESGGVQEQEGGSLRQSCAESGTIFLYAYMGWYRQAPGKERELVAAIDVGTTTNYADSVKGRFTICRDNAKNTVYLQMNSLKPDDTAVYYCAANLGYLDDLGYWGQGTQVTVSS | low polyreactivity
QVQLQESGRGLVQAGGSLRLSCAASGTISSRWGKGWYLQAPGKERELFASNDQGASTYYADSVKGRFTISRDNAKNTVYLQMNSLKPEDTEVYYCIAVPSSAGDYWGQGTQVTVSS | low polyreactivity
QVQLQESGSGLVQAGGSLRLSCAASGAIFPANLMGWYRQAPGKERELVAGISYGSITYCADSVKGRFNISRDNAKNTVYLQMNSLKPEDTAVYYCAVWRPGGDEYYYWGQGTQVTVSS | low polyreactivity
QVQLQESGVGLVQAGGCLSCTASCTIFGQGDMCWYRQAPGKERELVATINDGASTYYADSVKGRFTISRDKAKNTVYLQMKSLKPDVTAVYYCAVFTDITTYFGYWGQGTQVTVSS | low polyreactivity
QVQLQESGVGLVQAGGSLRLSCAASGYITARDAMVWYRQAPGKEREFVATIASGTTTYYADSVKGSFTISRDNEENTVYLQTNSLKPEDTAVYYCAAPTIQIYPFYYWGQGTQVTVSS | high polyreactivity
QVQLQESRGGLVQAGGSLCLSFAASGTIFFDGDMGGYRQAPGKEREFVAAINPGGSGYYADSVKGRLPLAAITHTVYLQMNSLKPEDTAVYYCAAKLFDVYGYYYWGQGTQVTLSS | low polyreactivity
QVQLQESSGGLVQAGGSLRMSCAASGTIFHFHIMGWYRQAPGKEREFVAAISYGTSTYYADSVKGRFTISRDNAKKTVYLQMNSQKPEDTAVYYCAVYDDLEVYCWYWGQGTEVTVSS | low polyreactivity
QVQLQESVGGLVHAGGSLRLSCAASGSISAVGAMGWYRQAPGKEREFAASVNWGTNTNYADSVKGRFTISRDNAKNTLYLQMNSLKPEDTAVYYCAVLPDWETRHDYWGHGTQVTVSS | low polyreactivity
QVQLQESVGGLVQAGGSLRLSCASSGSISNSAAMGWYRQAPGKERELVVSIGHGASSNYADSVKGRFTISRDNAKNTVYLQMNSLKPEDTAVYYCAAYPGFLDGFFYWGQSTQVTVSS | high polyreactivity
QVQLQESVGGPVLAGGSLRLSCGASGTIFVRLDMGWYRQARGKVREFVATIGSGSSTYYADSVKGSFTISRDNVKNTVYLKMNSLKPEDTAVYYCAVYAAEQSRHYYWDQGTQVTVSS | low polyreactivity
QVQLQGSGGGLVQAGGSLRLSCAASAYIFQNHPMGCNRQAPGKERELVAGIDNGTSTNYADSVNGRFTISRDNAKNTVYLQMNSLKPEDTAVYYCAAAGQADDTLGYWGQGTQVTVSS | low polyreactivity
QVQLQVSGGGLVQAGGSLRLSCAACGSNFLTAEMGWYLQAPGKERELVAAIATGTSTNYADSVKGRFTISRDNAKNTVYLQMNSLKREDTALYYCATYHYWGQGTQVTVSS | low polyreactivity
QVQLRESGAGGRQPAPEMRGERQYFYWSADGLVSQGPGKEREFDAGIDRGTITNYADSVRGRFTISRDNAKNTVYLQMNSLKPEDTAVYYCAVPAYGDPRSYYWGQGTHVTVSS | high polyreactivity

— the nanobody polyreactivity screen of Harvey et al. (2022)
